This passage reports amyloid nucleation score results from the supplement of paper PMC12042874.

± gives the uncertainty stated by the source.

This data set is described as follows: amyloid nucleation score (Sup35N fusion, yeast selection) (log enrichment); library NNK1; higher = more nucleation; inactive = no reads after selection. The procedure, abridged: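 The nucleation score is the DiMSum log enrichment of output over input reads, centred on the mode score of non-aggregating sequences. Only sequences with 100 or more input reads were scored, using Illumina sequencing of input and output plasmid inserts. Psi-negative yeast expressing Sup35N fused to peptides of 20 random codons were induced 24 hours with 100 μM copper sulfate and grown 7 days at 30°C on medium lacking adenine and uracil.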
As to VWRTEQ, the amyloid nucleation score is -0.533 ± 0.66.

As to VQYLMWSFTVAKLVMQDYHG, the amyloid nucleation score was 0.835 ± 0.43.

For DNQVLCYECRGYWMQTVHVL, the amyloid nucleation score came to 0.069 ± 0.97.

As to YRLDFGWTMH, the amyloid nucleation score was found to be 0.3 ± 0.31.

Take AFMYYMKPSMPIYELRILEG: the amyloid nucleation score entry was “inactive”.

For the substance GMRVLQIFGTGGGDSNTRGD, the amyloid nucleation score was 0.84 ± 0.36.

In the case of RFASISYVGTNSGLDVQSNW, the amyloid nucleation score was found to be 0.171 ± 1.2.

For the substance KVKRFDGCSSRSKHVVTEI, the amyloid nucleation score is 4.13 ± 0.076.

Turning to LFLCRILYCLWVNVFLLGHE, the amyloid nucleation score turned out to be 0.367 ± 0.32.

In turn, MVKRRV showed an amyloid nucleation score of -0.232 ± 1.2.

In the case of FMLWCQFKRDNIKRTDRLAV, the amyloid nucleation score stood at 1.46 ± 0.78.

Take HPVIADDLSYAAVIKRYLGV: the amyloid nucleation score was found to be 0.267 ± 0.41.

The substance WFMPTSRSKVVYLPSYRCNE showed an amyloid nucleation score of 0.432 ± 0.2.

The substance EDGSQ had an amyloid nucleation score of 0.532 ± 0.42.

The substance SLYELPWDNYP registered an amyloid nucleation score of -0.043 ± 1.4.

Turning to RVWYGFYCELITTPRFASGV, the amyloid nucleation score is -0.322 ± 1.7.

In the case of NPWLSNFSCK, the amyloid nucleation score worked out at 0.244 ± 0.47.

CGGYSTTCSLTWEILASNRL had an amyloid nucleation score of 0.675 ± 1.

FTALPSTVVIVQHTLHLDSF displayed an amyloid nucleation score of 6.48 ± 0.066.

For the substance WRCRGCMWAHRAWGNSSCV, the amyloid nucleation score is -0.655 ± 0.98.

The substance LCLISDMPKHFGCGYTKCSL registered an amyloid nucleation score of -1.17 ± 0.63.

The substance LSYRSSRFGVS returned an amyloid nucleation score of 0.3 ± 0.64.

TVDGTECCWVDTRNNSRMVK yielded an amyloid nucleation score of -0.941 ± 0.78.

For the substance GWSSFWGPLVCARVWRRIGE, the amyloid nucleation score was determined as 0.433 ± 0.54.

With WAICDSLLVLVSRKGSASSP, the amyloid nucleation score is -1.56 ± 1.4.

In turn, SSSGMVDSVSYDLRGRVGLR yielded an amyloid nucleation score of 0.29 ± 0.3.

Take VWFCLCLYM: the amyloid nucleation score was 1.95 ± 0.091.

Turning to FIYLENAS, the amyloid nucleation score was determined as 0.532 ± 0.38.

Take RHGVRYSKLELINTREFYNE: the amyloid nucleation score was -0.246 ± 0.9.

DPLRMILVISFRMVRFIQWP gave an amyloid nucleation score of 0.072 ± 0.32.

EVVFNYTKHQVTIAV: the amyloid nucleation score result is “inactive”.

In the case of LYAIYTAFNRVSSYSNMPVM, the amyloid nucleation score was -0.599 ± 0.92.

LMKGTYFIMCNLLAYECLTR showed an amyloid nucleation score of 2.78 ± 0.14.

LVSCDIVWWTAMFGLLARMF came in with an amyloid nucleation score of 0.591 ± 0.37.

The substance RWMPFISLSVNLTGNYLIRL registered an amyloid nucleation score of 2.25 ± 0.27.

Regarding EYLSDDGI, the amyloid nucleation score was found to be 0.131 ± 0.28.

Take AAMYSLICNPI: the amyloid nucleation score turned out to be 0.518 ± 0.3.

As to RLGRNVNEHRVPLVLACVED, the amyloid nucleation score was determined as 0.964 ± 0.93.

The substance RYSCY registered an amyloid nucleation score of 0.152 ± 0.6.

On to DFLMMSVLHHNNVSYS, for which the amyloid nucleation score is 1.52 ± 0.66.

HGVLCSWSRLKTRFDQNGIS came in with an amyloid nucleation score of 0.616 ± 1.2.

For the substance MSSRQVPGFLMIGSLFARCI, the amyloid nucleation score was -0.639 ± 0.55.

With RESASSNGYVYILCMQRVPR, the amyloid nucleation score was found to be 0.102 ± 0.34.

As to NSPGCKCRSKGLISINST, the amyloid nucleation score result was “inactive”.

On to CEMMDNPFLLLRVKGSKVRS, for which the amyloid nucleation score entry is “inactive”.

Substance FWGNGQRVNSNIQRDVKWDA returned an amyloid nucleation score of -0.199 ± 0.45.

With ILGFSRWNLNCISSRGRKIR, the amyloid nucleation score is -0.297 ± 0.39.

In the case of FTVSLTSLYYISITGLLARR, the amyloid nucleation score was -0.115 ± 0.52.

Turning to SDPCKCTYCSYLSLDITLYA, the amyloid nucleation score was found to be 0.05 ± 0.23.

In the case of KVEWVSDTRVNLLGTFVLKA, the amyloid nucleation score amounted to 1.18 ± 0.43.

The substance DWMLISE came in with an amyloid nucleation score of -0.084 ± 0.28.

YLIDSSTPDFR returned an amyloid nucleation score of 0.314 ± 0.3.

In the case of ACVLTAKMAARRIHMWQGLF, the amyloid nucleation score is -0.744 ± 0.84.

For the substance LDQIQIFSEIGVFRLVCQHI, the amyloid nucleation score is -0.164 ± 0.64.

In turn, IHMLIVLSF gave an amyloid nucleation score of -0.103 ± 1.4.

The substance TYIYSTILEVFYLSLGHVII showed an amyloid nucleation score of 0.775 ± 0.35.

Regarding VIAKRPSMWGSKRNFRLVRV, the amyloid nucleation score stood at 0.512 ± 0.88.

Consider HTHESNRPHYYCGADCLPKD, for which the amyloid nucleation score came out at 2.71 ± 0.14.

Substance TRCINVYHPLCI yielded an amyloid nucleation score of -0.875 ± 0.36.

Substance LRRLNRHFIVTFFNGTRCDF showed an amyloid nucleation score of 2.1 ± 0.26.

As for INFRHA, the amyloid nucleation score amounted to 2.57 ± 0.33.

With GNGFVL, the amyloid nucleation score came to 0.999 ± 0.45.

As to VDVQGICRHISFNIAGA, the amyloid nucleation score is -0.035 ± 0.72.

With GNWAVGSIRDSCICGYIELR, the amyloid nucleation score came to 6.915 ± 0.046.

The substance MCSKWDFQVLSHTDSWVWV showed an amyloid nucleation score of -0.67 ± 0.5.

GILLRH displayed an amyloid nucleation score of -0.742 ± 1.2.

INGMEYLEQKIEVL showed an amyloid nucleation score of 0.091 ± 0.42.

Substance SDYTYAFPCMRGWCWYFAVS displayed an amyloid nucleation score of -0.691 ± 1.7.

Take RWFRNAIGGIL: the amyloid nucleation score is -0.586 ± 0.59.

As for YWKMRCM, the amyloid nucleation score came out at 3.47 ± 0.19.

LASLDLCVISLMNNHVDRTD: the amyloid nucleation score amounted to 0.94 ± 0.29.

Consider TKMHCVGGSSRTNKSLWTIY, for which the amyloid nucleation score came out at 1.08 ± 0.57.

As for SLKFRLYSPNAMALNPKALF, the amyloid nucleation score is 0.581 ± 0.21.

With GSDQLSTT, the amyloid nucleation score is -0.338 ± 0.43.

CYGGWVYLLRIALCGEDSVI showed an amyloid nucleation score of 0.58 ± 0.58.

Consider WNYTGSFFMQYSMGISRRDG, for which the amyloid nucleation score was 1.59 ± 0.2.

FVSRGLYGVLGTVSFLL had an amyloid nucleation score of -2.07 ± 1.6.

Take VQNDTTLHVIFILGRAW: the amyloid nucleation score was found to be 2.44 ± 0.12.

For RYRWTSLVFLGMTQH, the amyloid nucleation score is 0.75 ± 0.38.

Substance YLAWNM yielded an amyloid nucleation score of 1.8 ± 0.34.

In turn, AGWYINYTGKRDDARLLY yielded an amyloid nucleation score of 0.187 ± 0.86.

Consider VVWILMSAQNRMAPRFDVLT, for which the amyloid nucleation score was found to be 1.06 ± 0.51.

In turn, GTRWSHTWWPGTNLMLCVQG returned an amyloid nucleation score of -0.453 ± 0.26.

For HSEIHVALYCASVML, the amyloid nucleation score worked out at 3.38 ± 0.097.

For TCIISTDGCMQAGHFVGDRR, the amyloid nucleation score was -0.69 ± 0.54.

KRNRYTKGTHHTSFMNFYFC showed an amyloid nucleation score of 8.37 ± 0.066.

In the case of LWMHAGSGRIKLETGCGAKC, the amyloid nucleation score result was “inactive”.

SFAII showed an amyloid nucleation score of 0.91 ± 0.3.

With HAMISWDISNVCVYWHMCPW, the amyloid nucleation score amounted to 0.12 ± 0.33.

Consider NCRFRVVVRKSGTLLPVWVP, for which the amyloid nucleation score was 0.542 ± 1.

As to GLRDACFSVLPVYLWVSNGD, the amyloid nucleation score was 0.281 ± 0.55.

On to NPAEL, for which the amyloid nucleation score came out at 0.222 ± 0.54.

As to LDKYLHLRLWHTVFWYSTIK, the amyloid nucleation score result is “inactive”.

For HWWYFCINP, the amyloid nucleation score result is “inactive”.

In the case of INLGVMWGVPTELLVCNF, the amyloid nucleation score entry was “inactive”.

With SMSHGWGLLDFLWADCWWPK, the amyloid nucleation score was -0.031 ± 1.

SMLYFRNFRASLLPWAVDFT returned an amyloid nucleation score of -0.496 ± 1.7.

MVVVIIYL: the amyloid nucleation score came out at 1.53 ± 0.35.

With ERVGAGVGSNERRD, the amyloid nucleation score came out at 0.646 ± 0.89.

As to RLRVVL, the amyloid nucleation score is -0.537 ± 0.64.

As for AAIAWVLN, the amyloid nucleation score came out at 0.112 ± 0.58.

As to KGQFF, the amyloid nucleation score is 0.835 ± 0.75.

FWIEGP came in with an amyloid nucleation score of 0.564 ± 0.9.

For WFSTDGWKNMSDSLASWSCY, the amyloid nucleation score was 0.863 ± 0.42.

NGFNKSRAQWFGSVSCSPEG came in with an amyloid nucleation score of 0.174 ± 1.5.

In turn, MWSGDDCSFNDFCYVCDFCK had an amyloid nucleation score of -0.1 ± 0.32.

Consider VRMNCMDYQFNYLSLLLRTI, for which the amyloid nucleation score was -0.401 ± 0.45.

With VMQFGVSGNAGC, the amyloid nucleation score was 0.778 ± 0.55.

In turn, LVFPWIISFCQRMWMLYQRY registered an amyloid nucleation score of 0.499 ± 0.35.

In turn, VLEDCNMRGK came in with an amyloid nucleation score of 0.789 ± 0.36.

For DRRRNCYFIRLWQGLGYIS, the amyloid nucleation score result is “inactive”.

Consider MSLYTDNWGNKGRTSLNYSS, for which the amyloid nucleation score came to 0.455 ± 0.51.

Take FFWEY: the amyloid nucleation score was -0.312 ± 1.5.

CLDNWLGGHNSLSSYSG had an amyloid nucleation score of 0.538 ± 0.37.

In the case of LRKTFF, the amyloid nucleation score worked out at 0.38 ± 0.33.

Take FLPWVLFFSQ: the amyloid nucleation score was 0.816 ± 0.62.

In the case of IRDTLNVCNKEEQKSRGS, the amyloid nucleation score was -0.358 ± 0.37.

For the substance NFGVSSNLCGGIWIYW, the amyloid nucleation score is 4.74 ± 0.074.

In the case of AFYLN, the amyloid nucleation score is -0.055 ± 0.34.

For the substance GDYYACGPTCGSRAAFPGVG, the amyloid nucleation score is -0.383 ± 0.59.

Consider CALVYGWTEHDV, for which the amyloid nucleation score was found to be 1.44 ± 0.64.

In the case of PQKLQGQIGCR, the amyloid nucleation score was -0.549 ± 0.47.

For the substance TKLTSVYMK, the amyloid nucleation score was -0.355 ± 0.62.

On to VGLSVRACNFTRVGLMSFRD, for which the amyloid nucleation score stood at 0.388 ± 0.37.

The substance SYYDSQYGLYGESVCL displayed an amyloid nucleation score of 0.738 ± 0.72.

For FEIMQPNAHISCHYCYLVNM, the amyloid nucleation score is 5.01 ± 0.059.

RAISVLPIMSVRAH came in with an amyloid nucleation score of 0.085 ± 0.25.

Consider CLVYSTYIDGQTLAKTF, for which the amyloid nucleation score is -0.761 ± 1.2.

Regarding RSDNSCRRLLEDWRSWRRAV, the amyloid nucleation score entry was “inactive”.

The substance HVVFVMDVRYPKIAVVYLLA displayed an amyloid nucleation score of 1.1 ± 0.66.

On to VRFGWVSSTPVVGVSQLCAH, for which the amyloid nucleation score was -0.305 ± 1.1.

Consider SFVIYSKKCKNGSVNTVACS, for which the amyloid nucleation score amounted to 0.142 ± 0.62.

Turning to NYTNTMWSSFLDYVVD, the amyloid nucleation score is 0.272 ± 0.88.

Turning to RKNTDVTENEYRWAIF, the amyloid nucleation score was -0.522 ± 1.9.

As to FSTGNPWVD, the amyloid nucleation score is -0.342 ± 0.8.

NFLIDTYCVNSFNVTL: the amyloid nucleation score was 2.67 ± 0.17.

For FAEFKDICMRE, the amyloid nucleation score stood at 0.978 ± 0.74.

In turn, DPCSVGFVPPMVLGSLGGDV registered an amyloid nucleation score of -0.248 ± 0.71.

YHIMGFSSYGGVVRWMSS had an amyloid nucleation score of -0.312 ± 0.36.

In turn, LCVNERVHQSLSRQRIPNCL gave an amyloid nucleation score of 1.26 ± 0.61.

In the case of KVLGWNMGVHFNHGGRSFVM, the amyloid nucleation score was 0.461 ± 0.54.

Turning to SKAWNRAGELVVSCTMVS, the amyloid nucleation score entry is “inactive”.
